Experimental data from paper doi:10.1101/2024.03.07.581839 (bioRxiv, 2024).

Target: the molecule itself
Test: cryo-EM structure

B1: human GPR156 (receptor)
chain: MEPEINCSELCDSFPGQELDRRPLHDLCKTTITSSHHSSKTISSLSPVLLGIVWTFLSCGLLLILFFLAFTIHCRKNRIVKMSSPNLNIVTLLGSCLTYSSAYLFGIQDVLVGSSMETLIQTRLSMLCIGTSLVFGPILGKSWRLYKVFTQRVPDKRVIIKDLQLLGLVAALLMADVILLMTWVLTDPIQCLQILSVSMTVTGKDVSCTSTSTHFCASRYSDVWIALIWGCKGLLLLYGAYLAGLTGHVSSPPVNQSLTIMVGVNLLVLAAGLLFVVTRYLHSWPNLVFGLTSGGIFVCTTTINCFIFIPQLKQWKAFEEENQTIRRMAKYFSTPNKSFHTQYGEEENCHPRGEKSSMERLLTEKNAVIESLQEQVNNAKEKIVRLMSAECTYDLPEGAAPPASSPNKDVQAVASVHTLAAAQGPSGHLSDFQNDPGMAARDSQCTSGPSSYAQSLEGPGKDSSFSPGKEEKISDSKDFSDHLDSGCSQKPWTEQSLGPERGDQVPMNPSQSLLPERGGSDPQRQRHLENSEEPPERRSRVSSVIREKLQEVLQDLGLGPEASLSTAPSCHQQTWKNSAAFSPQKMPLSKELGFSPYMVRRRRAAQRARSHFPGSAPSSVGHRANRTVPGAHSRLHVQNGDSPSLAPQTTDSRVRRPSSRKPSLPSDPQDRPGTLEGSKQSQTEPEGARGSKAAFLRQPSGSGRAPSPAAPCLSKASPDLPEQWQLWPPVPSGCASLSSQHSYFDTESSSSDEFFCRCHRPYCEICFQSSSDSSDSGTSDTDPEPTGGLASWEKLWARSKPIVNFKDDLKPTLV
  stoichiometry N: 2
